Results on six molecules are retold here after US20110110856A1 (SIGNALOMICS, published 2011).

Experiment [1] has as its target T1, N-terminal domain of CEA (Homo sapiens (Human), UniProt P06731 35-144).
T1 construct: Target of the yeast two-hybrid screens; synthetic gene, codon-optimised for S. cerevisiae, cloned into a yeast TH vector; The fusion partner of the vector is not described; also called N-CEA; CEACAM5
T1 sequence: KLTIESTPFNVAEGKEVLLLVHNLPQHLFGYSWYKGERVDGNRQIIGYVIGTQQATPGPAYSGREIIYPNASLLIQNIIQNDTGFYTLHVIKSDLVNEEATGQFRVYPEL
The experiment in a line: yeast two-hybrid screen against N-CEA.

Experiment [2] has as its target T1, N-terminal domain of CEA. The experiment in a line: yeast two-hybrid, FDG rescreening.

Numbering of substitutions follows the chain as printed. Names and notes keep the numbering of the source.

B1: DraE T88M (N77K) I111H (ligand)
chain: GFTPSGTTGTTKLTVTEECQVRVGDLTVAKTRGQLTDAAPIGPVTVQALGCDARQVALKADTDNFEQGKFFLISDNKRDKLYVNIRPMDNSAWTTDNGVFYKNDVGSWGGHIGIYVDGQQTNTPPGNYTLTLTGGYWAK
Consider B1, for which, in experiment [1], the binding result is given as “binds”.

B2: combined mutant F100S T11I D37G (on DraE T88M N77K) (ligand)
chain: B1 chain with T11I, D37G, F100S, H111I
notes: also called F1005 T11I D37G
Take B2: the binding result in experiment [2] was “binds”.

B3: combined mutant T95E T123I (on DraE T88M N77K) (ligand)
chain: B1 chain with T95E, H111I, T123I
notes: also called T95E T1231
In the case of B3, the binding result in experiment [2] was “binds”.

B4: DraE T88M Q34L N84S (ligand)
chain: B1 chain with Q34L, N84S, H111I
As to B4, the binding result in experiment [2] is given as “binds”.

B5: DraE T88M G118S I85L (ligand)
chain: B1 chain with I85L, H111I, G118S
Consider B5, for which the binding result in experiment [2] was “binds”.

B6: combination mutant F100I T123I (on DraE T88M N77K) (ligand)
chain: B1 chain with F100I, H111I, T123I
On to B6, for which, in experiment [2], the binding result is recorded as “binds”.
